# Assay results taken from article PMC11398535 (bioRxiv, 2024).
# T1: peptide-8 (DEIVNKVL), derived from the ESCRT-III family member Vps2p
# T1 peptide: {5(6)‑carboxyfluorescein}-DEIVNKVL-NH2
# B1: Vps4p^L7C/A43C (MIT domain stabilised by a disulfide bond) (enzyme, S. cerevisiae, UniProt P52917 1-437, looked up)
# chain: MSTGDFCTKGIELVQKAIDLDTATQYEEAYTAYYNGLDYLMLCLKYEKNPKSKDLIRAKFTEYLNRAEQLKKHLESEEANAAKKSPSAGSGSNGGNKKISQEEGEDNGGEDNKKLRGALSSAILSEKPNVKWEDVAGLEGAKEALKEAVILPVKFPHLFKGNRKPTSGILLYGPPGTGKSYLAKAVATEANSTFFSVSSSDLVSKWMGESEKLVKQLFAMARENKPSIIFIDEVDALTGTRGEGESEASRRIKTELLVQMNGVGNDSQGVLVLGATNIPWQLDSAIRRRFERRIYIPLPDLAARTTMFEINVGDTPCVLTKEDYRTLGAMTEGYSGSDIAVVVKDALMQPIRKIQSATHFKDVSTEDDETRKLTPCSPGDDGAIEMSWTDIEADELKEPDLTIKDFLKAIKSTRPTVNEDDLLKQEQFTRDFGQEGN
# modifications: disulfide bond between C7 and C43 of the MIT domain
# Target: T1, peptide-8 (DEIVNKVL), derived from the …
# Experiment: fluorescence polarisation
binder,measurement,value
B1,fold tighter than Vps4p,8 fold
